{"source": "paper PMC4893494", "about": "“Identification and Characterization of Five BAHD Acyltransferases Involved in Hydroxycinnamoyl Ester Metabolism in Chicory” (Frontiers in Plant Science, 2016)", "test_in_all_cases": "HPLC-UV of product, Michaelis-Menten", "type_in_all_cases": "biochemical, Cichorium intybus", "key": {"[1]": {"substrate": "O=C(O)[C@]1(O)C[C@@H](O)[C@@H](O)[C@H](O)C1", "conditions": "acyl acceptor varied, saturating caffeoyl-CoA (800 μM), 50 mM phosphate pH 7.1, room temperature", "excerpt": "HPLC-UV of product, Michaelis-Menten on HQT2 (CiHQT2)"}, "[2]": {"substrate": "O=C(O)[C@]1(O)C[C@@H](O)[C@@H](O)[C@H](O)C1", "conditions": "acyl acceptor varied, saturating caffeoyl-CoA (800 μM), 50 mM phosphate pH 7.1, room temperature", "excerpt": "HPLC-UV of product, Michaelis-Menten on HQT3 (CiHQT3)", "remark": "listed apart in the source"}, "[3]": {"substrate": "O=C(O)C1=C[C@@H](O)[C@@H](O)[C@H](O)C1", "conditions": "acyl acceptor varied, saturating p-coumaroyl-CoA (800 μM), 50 mM phosphate pH 7.1, room temperature", "excerpt": "HPLC-UV of product, Michaelis-Menten on HCT1 (CiHCT1)"}, "[4]": {"substrate": "O=C(O)[C@]1(O)C[C@@H](O)[C@@H](O)[C@H](O)C1", "conditions": "acyl acceptor varied, saturating caffeoyl-CoA (800 μM), 50 mM phosphate pH 7.1, room temperature", "excerpt": "HPLC-UV of product, Michaelis-Menten on HQT1 (CiHQT1)", "remark": "listed apart in the source"}}}
{"protein": "HQT2 (CiHQT2) (Cichorium intybus) (protein) MGSDQKMMMNINIKKSSIIPPSETIPECPKQLWTSNLDLVVGRIHILTVYFYRPNGSANFFDPNVMKKALADVLVSFYPMAGRLDRDESGRIVINCNGEGVLFVEAESDSTLDDFGEFTPSPEFRRLTPTVDYSGDISSYPLFFAQVTHFKCGGVALGCGVFHTLSDGLSSLHFINTWSDMARGLSVAIPPFIERTLLRAREPPTPTHDHVEYHEPPSMSPTAQKPGSGSSTTMLKLTLDQLNTLKVKAKIESGQTHSTYEILAAHIWRCACKARGLPDDQLTKLYVATDGRSRLSPRLPPGYLGNVVFTATPVAKSGDLTSGSLSNTAKLIHTTLTKMDDDYLRSAIDYLESQKDLSALIRGPTYFASPNLNINAWTRLPVHDADFGYGRPIFMGPAQILYEGTVYVLPSPNNDRSVSLAVCLDANEQSLFEKFLYEL", "values": [{"measurement": "Km", "setting": "[1]", "result": "613 ± 53", "unit": "µM"}, {"measurement": "Vmax", "setting": "[1]", "result": 8.04, "unit": "µmol/min/mg"}, {"measurement": "Vmax/Km", "setting": "[1]", "result": 13200, "unit": "µL/min/mg"}]}
{"protein": "HQT3 (CiHQT3) (Cichorium intybus) (protein) MGSDHKTMKINIKQSSLVQPSKPTIPSNKKLWTSNLDLVVGRIHILTVYFYRPNGCSNFFDPVVMKKALADVLVSFYPFAGRLSRDQNGRLEINCNGEGVLFVEAESDSTLDDFGEFTPSPELRRLTPTVDYSGDISSYPLFFAQVTHFKCGGVGLGCGVFHTLADGLSSIHFINTWSDMTRGLSIAVPPFTDRTLLRARETPTPTFDHVEYHLPPTMNTTSQNPKSSRKPSTNMLKLTIDQLNALKTAAKNDGGNTAYSTYEILAAHLWRCACKARGLPNDQQTKLYVATDGRSRLSPQLPPGYLGNVVFTATPMAKSGDLTTQPLSNSASLIRSTLSKMDNEYLRSAIDYLEVQPDLSALIRGPSYFASPNLNINTWTRLPVHDADFGWGRPVFMGPAVILYEGTIYVLPSPNNDRSMSLAVCLDADEQPLFEKFLYEF", "values": [{"measurement": "Km", "setting": "[2]", "result": "318 ± 71", "unit": "µM"}, {"measurement": "Vmax", "setting": "[2]", "result": 9.9, "unit": "µmol/min/mg"}, {"measurement": "Vmax/Km", "setting": "[2]", "result": 31200, "unit": "µL/min/mg"}]}
{"protein": "HCT1 (CiHCT1) (Cichorium intybus) (protein) MKIEVRESTMVRPAEETPKINLWNSNVDLVVPNFHTPSVYFYRPNGATNFFDPKVMKDALSKALVPFYPMGGRLKRDEDGRIEIDCQGQGVLFVEAESDGMVDDFGDFAPTLELRKLIPAVDYSQGIESYPLLVLQVTYFKCGGVSLGVGMQHHAADGASGLHFINTWSDMARGLDLTIPPFIDRTLLRARDPPQPAFEHVEYQPAPQMKTTSKSTDEQPVPETAVAIFKLTRDQLNALKAKSKENGNTINYSSYEMLSGHVWRCVCKARNLPADQDTKLYIATDGRARLRPSLPPGYFGNVIFTTTPIAVAGELMSNPTWYAAGKIHDGLAKMDNDYLKSALDYLELQPDLKALVRGAHSFRCPNLGITSWARLPIHDADFGWGRPIFMGPGGIAYEGLSFVLPSPINDGSLSIAISLQAEHMKVFSKFLYDI", "values": [{"measurement": "Km", "setting": "[3]", "result": "320 ± 40", "unit": "µM"}, {"measurement": "Vmax", "setting": "[3]", "result": 14.2, "unit": "µmol/min/mg"}, {"measurement": "Vmax/Km", "setting": "[3]", "result": 44400, "unit": "µL/min/mg"}]}
{"protein": "HQT1 (CiHQT1) (Cichorium intybus) (protein) MTNGAGSEKMKVTVKESVIVKPSKTTPIQRLWNSNIDLLVGRIHLLTIYFYRPNGSSDFFDSGVLKKALSDVLVSFFPMAGRLGKDGDGRVEINCNAEGVWFVEAEADCRIDDFGEITPSPELRRLAPTVDYSGDISSYPLFITQVTRFKCGGVSLGCGVHHTLSDGFSSLHFINTWSDVARGLSVAIPPFNDRTLLRARDPPTPMYDHVEYHPPPSLITPPENHKPPASTTILRLTLDQINDLKSKGKGDGSVYHSTFVIIAAHLWRSACKARGLSDDQPTKLYVATDGRSRLIPPLPSGYLGNVLFTTTPMAKSGEFKSESLADTARRIHNELARMDDQYMRSAIDYLELQSDLSALVRGPTYFASPNLNVNSWTRLPLYESDFGWGRPIFMGPASILYEGTIYIIPSPTDDRSLKLAVCLDSDHMSLFQKYLYDF", "values": [{"measurement": "Km", "setting": "[4]", "result": "162 ± 34", "unit": "µM"}, {"measurement": "Vmax", "setting": "[4]", "result": 6.78, "unit": "µmol/min/mg"}, {"measurement": "Vmax/Km", "setting": "[4]", "result": 42000, "unit": "µL/min/mg"}]}
